Source: article PMC5665613

Target: Ub-aminomethylcoumarin (Ub-AMC) (UniProt P0CG47)

Chain of BAP1N (1-240), wild-type catalytic domain of BAP1 (Q92560 1-240): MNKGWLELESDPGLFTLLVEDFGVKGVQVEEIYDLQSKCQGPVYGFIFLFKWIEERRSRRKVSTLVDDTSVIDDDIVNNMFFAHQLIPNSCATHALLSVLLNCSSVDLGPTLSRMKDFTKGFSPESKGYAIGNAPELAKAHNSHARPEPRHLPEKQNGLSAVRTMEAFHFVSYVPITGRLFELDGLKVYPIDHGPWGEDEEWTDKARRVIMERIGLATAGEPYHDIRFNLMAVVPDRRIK

BAP1N (1-240), wild-type catalytic domain of BAP1 (from UniProt Q92560 1-240) (domain or fragment)
Km of Ub-AMC hydrolysis by BAP1N (250 pM enzyme, 100 nM-7.5 µM Ub-AMC, 25°C, double-reciprocal plot): 2.9 µM
